Experimental findings from the supplement of paper PMC12042874 are described below.

± gives the uncertainty stated by the source.

This series is described as follows: amyloid nucleation score (Sup35N fusion, yeast selection) (log enrichment); library NNK1; higher = more nucleation; inactive = no reads after selection. Summed up:
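Sup35N was fused to peptides of 20 random codons and expressed in psi-negative yeast, which were induced with 100 μM copper sulfate for 24 hours and then grown on medium lacking adenine and uracil for 7 days at 30°C. Plasmid inserts from input and output were sequenced on Illumina. The nucleation score is the DiMSum log enrichment of output over input reads, centred on the mode score of non-aggregating sequences. Sequences with under 100 input reads were left out, and random libraries had three technical output replicates.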
For the substance NIYVGSYTLYTTN, the amyloid nucleation score stood at 5.386 ± 0.047. MGGLRVYRPCVER gave an amyloid nucleation score of -0.437 ± 0.71.

In turn, NLECFTCFFLYTIDMNLKP yielded an amyloid nucleation score of 4.94 ± 0.053.

The substance WFYKLSSLFYNPLCL returned an amyloid nucleation score of -1.13 ± 0.41. The figure for LGTKL is 0.601 ± 0.63; for HMAAYKVSGVKSGSPEW it is -0.145 ± 0.59; for VAQLRIKVCKDPGTWLQVHH it is 1.48 ± 0.74. The entry for LSQAASNLLSRNLVPLSWLV is “inactive”; for MLIRVISDVLPG it is 0.224 ± 0.5; for TSLRFLSVRS it is 0.011 ± 0.49. The figure for VSYSGQSLICYWVLEASFVV is -0.05 ± 0.31; for NSYTCNMFDLVFCAYTIASI it is 4.95 ± 0.057. In turn, DSYWFRRLC gave an amyloid nucleation score of 0.22 ± 0.71.

In the case of EKLRIVHQRRGRVHFNSGAI, the amyloid nucleation score was -0.482 ± 0.41. FGCNELNR came in with an amyloid nucleation score of 0.826 ± 0.5. Then GVKSQTMLGLQRSAAFILCY, with -0.127 ± 0.55; and IGMVSVSC, with 0.037 ± 1.2.

Take TMIDNPVYPSVFRVGHDTLV: the amyloid nucleation score is 0.356 ± 0.3. For the substance FRKGDILRTFSMFKSKYTVG, the amyloid nucleation score is 0.839 ± 0.65. The figure for VYRCCLKAVCFIDVVTGLWG is -0.173 ± 0.71. The figure for DNGGSAVQEDQVLAWSTGEQ is 0.874 ± 0.23; for RPTGLDILS it is 3.56 ± 0.1; for PFMLRSNGQWTSYINCIFIS it is 7.865 ± 0.068.

In turn, WVVISMSVRHVLACNLLPIR came in with an amyloid nucleation score of -0.013 ± 0.76.

As for FKVPVYGWLWETTVVSADTS, the amyloid nucleation score is -0.131 ± 0.37. As for RIWSLRPFRSEYLRVCFFVS, the amyloid nucleation score was determined as 0.437 ± 0.78. Then LVLVNSTWCTYPCGWMCEME, with 0.488 ± 1.2; and LTFRRRYRWGQGTCINFCRR, with 0.082 ± 0.67; and VLGMAEATADFSPIWVSKCS, with 0.455 ± 1.4. Then GSVDQSMC, with 0.968 ± 0.45; and FSPSLVMHSATSLRNVGLSA, with -0.93 ± 2.4; and IIRKPGLTRTCHTVLTAASE, with 0.511 ± 0.91. Then TRIVLLVVRRGTRKG, with 0.889 ± 0.48; and GEGSCGVSLSSMYLQWGARV, with -0.663 ± 0.83; and PKMGSGHSWTRGQYICHS, with -0.301 ± 1.1.

In turn, YLYVGS returned an amyloid nucleation score of -0.352 ± 0.37.

As to ICTEIRRGLHE, the amyloid nucleation score was 1.11 ± 0.71.

For KNRQLTRLFYTWELRTGTVG, the amyloid nucleation score was -0.227 ± 0.61.

ETYGCFRYWISSLPVVEVSF had an amyloid nucleation score of -0.368 ± 0.35. Then PFYLDSGADVTEPGHLGFYG, with 0.158 ± 0.37; and NRIFCLYSFCCFHENWVGLY, with 4.96 ± 0.095; and GRWWRLLLYCLVAVLAFVGF, with 1.33 ± 0.6. The figure for MSYIQRMGVYLTITGLRGMK is -0.527 ± 1; for LLYSMDRQVLMSAISLLSIT it is 0.903 ± 0.63. Then SSNSGYSWSFTAWMGLGMRR, with -0.037 ± 1.7.

For RCLVFTLKRV, the amyloid nucleation score was determined as 0.358 ± 0.61. Then LLVMVVMGCCA, with 0.163 ± 0.83; and CFCFLRFYRLQPNAQLDSKS, with 1.69 ± 0.31; and ALETFNGQVMSPSSRLRIDR, with -1.07 ± 0.88. The figure for SKMDGVATRYRYNAMRADVK is 0.181 ± 0.2; for MFYSFNDVGWFAFRFSEIGV it is -0.539 ± 0.41; for TCKTHHRGTPGATVFPKDTA it is 0.17 ± 0.45. RQSQRWYFLLCGYYKAFFRR: the amyloid nucleation score stood at 1.63 ± 0.73.

For TAYVLLWTRTVFVFPEVHTF, the amyloid nucleation score was 0.887 ± 0.43. The substance GAPLTENKFVLRNFVMGSAL yielded an amyloid nucleation score of 0.159 ± 0.77. The figure for CYTHPVMSITLNSI is 2.36 ± 0.15. The figure for RSCLDGSRVMVSWR is 0.305 ± 0.46; for IDNMGT it is 2.4 ± 0.12. Then ILRSGNVCYHNTVRWVLSYR, with 0.225 ± 0.21; and SGWIRLL, with 0.66 ± 0.36; and IKWLGLTSHRWIYTSGLRIL, with “inactive”. SYNQLDKCR: the amyloid nucleation score result is “inactive”. Then CSAKNLYVTTQFSLVLFVGS, with 6.422 ± 0.052; and PLLGASSRYDHAMLCGNRTF, with 0.127 ± 0.33; and VFLACNMMYDTKVQTHGYRG, with 4.23 ± 0.07.

FKTYYLATLDTNS displayed an amyloid nucleation score of -1.73 ± 2.4. Then HAFKPSAAPQWRTYPRFRSG, with “inactive”; and DYVPYEKAHRARMYCPTHQG, with 0.409 ± 0.35. With FSYCAFHIMNQWVVFNYGGC, the amyloid nucleation score stood at 6.421 ± 0.06. The figure for EPAFL is 0.229 ± 0.42. The figure for SYFGYNVIMEIHTI is -0.122 ± 0.31; for QAKGLALLCV it is -2.17 ± 2.7; for LTSFSTDPISGLLAGCFSID it is “inactive”. Then LVALDNAENFRSRKQWIGIR, with -0.599 ± 1.2; and VRHTQHRSSL, with -1.62 ± 1.3; and CVFRSYQWWSSHLYFVNVCN, with 0.667 ± 0.68. VFGLAV gave an amyloid nucleation score of -0.912 ± 1.1.

In turn, GIKCTRFWQVPNRGDRV gave an amyloid nucleation score of -0.813 ± 0.48. The figure for TFWVGEKSRVGSVPFQYLRL is -0.152 ± 0.31; for WFGYNIGPK it is 2 ± 0.28; for STVGPMWVWTTTLAKNAIPK it is 0.833 ± 0.57.

Turning to RETIPCVEVFTHRSLDFL, the amyloid nucleation score was found to be 1.15 ± 0.83. The figure for SVDGL is -0.763 ± 0.2; for WGIVVNQYVVRSVRLKLQDR it is 2.8 ± 0.13.

LLVRNMSNVVPLMFSIPSNV yielded an amyloid nucleation score of 0.458 ± 0.65. The figure for GSLWFRLGEFARTNFFNSVF is 0.05 ± 0.26; for NMTSYSIYGELE it is -0.341 ± 0.21; for SQRTWCLLGIGSTITRIHFG it is 2.74 ± 0.23. Then CLSRLLVLKYLSTWSKKWVW, with -0.115 ± 0.25. Then PGRYSISGSEHMPVYLYTFH, with “inactive”; and RNDHSRDHPFLDISWVCLGQ, with 0.58 ± 1.2.

As for ARFMSLTRSSACETNVGVYL, the amyloid nucleation score was found to be 0.608 ± 0.32. The figure for NPRLCPKDMRGRPQEKRVPQ is -0.345 ± 1.7. The figure for CNICNPI is -0.585 ± 1.6. The figure for YFRRCFDRCVMSRLRPI is -0.793 ± 0.61; for DLCATDMGGYKRGEGPEGAL it is -0.267 ± 1.1; for EYDLRSGEG it is -0.332 ± 0.46. Regarding CLETRYL, the amyloid nucleation score came to 1.15 ± 0.54. For SLNSMVSLTWVRRDYTIWKR, the amyloid nucleation score worked out at 0.001 ± 0.23.

The substance TFVLRCFSRCDGAITFQTRP showed an amyloid nucleation score of 1.14 ± 0.2.

Substance WNGTFNVPWSFDFRCSWVGK had an amyloid nucleation score of 0.719 ± 0.79. Then TFWTLVQQATVKHMLYGTFL, with -0.663 ± 1.9; and TLQLN, with -0.59 ± 0.65. LRRVMFHRGMCHSVVRNGFG yielded an amyloid nucleation score of -1.48 ± 1.6. The figure for CLPCVCIVNFTLGYDKGVV is 8.027 ± 0.048; for VIGVRAQYLCRHTLSVRYRK it is 1.67 ± 0.4. Then TPFRDKHGGVWVV, with 0.505 ± 0.56; and TKMCF, with 0.105 ± 0.41; and GISWSRGWSAFLKCDRRTGC, with 0.894 ± 0.8. Then YYAHSGMWYAMSDQKGAVG, with 0.552 ± 0.67; and DHHRFRGLL, with 0.657 ± 0.62; and NCSLILTTKRNRWYLQRLRF, with 0.467 ± 0.33. As to YGFKLGMFTGSIAMYAGHLI, the amyloid nucleation score is -0.198 ± 0.31. Then LSHTTVRIDMGAAWRSLYSM, with 2.36 ± 0.13; and KYIYNPSPLGSREDDTKACR, with 0.937 ± 0.49. Then DHPCTTWVLPSYGPEDPLPC, with 0.175 ± 0.35; and VSVQMAGIF, with -0.863 ± 0.54; and CSIVYCMCGLCAS, with 8.43 ± 0.055. Then FKESLGFMFMHDMSWDGLLV, with 0.224 ± 0.7; and ASGLMLFIMPFRWGWNSVFT, with 0.683 ± 0.42. With AVVHSRYRVSVCGDQDLSPL, the amyloid nucleation score is -0.086 ± 0.41. Then FKEMIAWPWLESSSGEFTIV, with 0.645 ± 0.62; and LSWFC, with -0.504 ± 0.43. Then GLPVGQGGELDY, with 2.32 ± 0.14; and WVRYFPCRIII, with -1.27 ± 0.79; and WVIVRYRNFCVCGRPSKDIG, with 0.263 ± 0.32. Then NCSGSRLFLMSLSL, with 6.52 ± 0.066; and TCSSLRSLLWSCVVRALLWT, with -0.528 ± 1.2; and GGGVMASDKPCTRVSLINKM, with 0.161 ± 0.7. IYNQESVEYQGTMYLHFRYW: the amyloid nucleation score result is “inactive”. Then LLFHSGWMMNGNPWACWYRE, with 1.89 ± 0.25; and SWRVCVMFDTL, with -0.987 ± 1.1; and KRARGDFYILEWQSDLDNLG, with -0.755 ± 0.67. Then DHVSLSDSRKKRSQIGIIHA, with 0.978 ± 0.45. Then CSPLVGMTGAMLTVRGSISR, with 0.019 ± 1; and DFYTVLEKYVM, with -0.157 ± 0.7; and PGNGTGVSTDGWVTLMHRRR, with -0.709 ± 0.53. YVSEEMNGLVMYQSNWGSVT returned an amyloid nucleation score of 0.224 ± 0.54.

On to QHTFQAMISKSNVSEMSPGT, for which the amyloid nucleation score is -0.174 ± 0.59. On to RYTLILH, for which the amyloid nucleation score was -0.355 ± 0.75.
